Data from the DeepSol protein solubility set.

Experiment: soluble on expression in E. coli; label from the status in PepcDB or PDB records

Soluble on expression in E. coli, not soluble:
MGSDKIHHHHHHVGYPRDFQLNYATLFSVSPLVIDWGSYSQIEAEMRLFQAAAPGKYAYYHLLSGLDLPLANQDEIHAFFAAHPGKEFITYSSQKNGAQLLARVQKYHFTHNFRQPNKAMRLFRKIEKAEQRVFPVRKKFAGTLAFGSNWVSLENDLVQVLLREDDRIRTMFARGFLVDELLVPTMLNIYPEFKDRIYYDRPVHDRPEEFQGSLRYINWWDGSPYVWREKDYETLLAARRQGHLFSRKFDAEVDKAIIDKIAGQLLEIK
MGSDKIHHHHHHVIRSLWISKTGLDAQQTQMDVIANNLANVSTNGFKRSRAVFEDLLYQTLRQPGAQSSQQTQLPSGLQLGTGVRPVATEHIFTQGNLQQTGNSKDVAIQGQGFFQVLRPDGSTAYTRDGSFQTDFEGQLVTSSGYHVQPAITIPPNAQSITVGRDGIVSVTTQDSTTPVQVGNLQLATFINPAGLQSVGENLYVETASSGTPNVTNPGTDGAGLLNQGYVETSNVNVVEELVNMIQTQRAYEINSKSVQTSDQMLQRLTQL
MGSDKIHHHHHHVNETSHSLEYEAFIEEARHVVEARFGHTGTTGEVPRLLLRHGTVRMARDMARGIRPCQVKMPDVSGLQYGDFAPLDPLALLRDEVKLPSLPAVVAELRDVLSSPNSSAADVARVISRDAGLSAFLLRMVNSAFYSFPSRIDTVSRAVALVGRQQLSTLALGVMVIGAMRDLPVAHLDLSLFWQHSIACAVVAGQLAEAAGMEEPERFFVAGLLHDIGRLAVFSLLPDRAAAILSMCSDYGMPAQDAELRVLGFDHATLGGMLLRKWNFPMSLVFSTLHHHVPERSVRHVEPAVVHVADVVVKGLGIGVSGMHQLPGFKEDAWQRLGVSVAVLEQLIDGLEERLRDTSSLLLE
MGSDKIHHHHHHVNVEVCLFLIGHGAPGSEAGSTELSRFEAASQDIEGLRRFAIHVPAQADDCDPLSKTDASTCPRCVLQWYFDDLELLERTLQPGRAIHDLVDGSSNNGLTFTHQVMAVRTFATPNPSGPGTRAERCTYLVSYEGEAQDFNAWLTHYLLHHPPLMAQLPGIRELEIYTRLDYRSGLRIRRATAMQRNKVVFDDPAALAAALASPVRASMKQDFNAFPPYSGATLHFPMRSIYGNLKPK
MGSDKIHHHHHHVPVSQLPSQPTDNNSSAATDVTPVVALKELVARLHREQNKIQDLLSSLGFALRSFNNLNQFLELIPLMATRVTDADGSALFLYKPNGQVRLEQLHWQDSGQRKNIRKALEIASSQITLLPNAAPLANATGILDDQMHRYLGPDVQIFGTAILVKHTERGWLYVLSRDPEYSWTETRQKLVRLVADQTAVAIENDELAVELRKKERLDQELEIGAEIQRRLLPRQCPTIPGAVLAARCKPANRVGGDYYDFIATNQNKIRSKTKGDTETGRWGLVIGDVMGKGVPAGLIMTMMRGMLRGEVLHGNSPAKILQNLNRVMYADLENSHRFVTLFYSEYNPHSRILSYSNAAHNPPLWWHAATKTVSRLDTLGMLIGLDANSQYEDAQVQLEPGDTIIYYTDGLTDAAAAGGDRFDEDNFVAGFNTACKYCNGPEEIVDYLFDQVQQFIGDDKQNTDDMTLVVLQIL
MGSDKIHHHHHHVQDKNFDKLAHKFAKNIYGTPKGEIRAAVLWRDLSSALAPFGDKKLRILDAGGGFGFFSQKLARLGHEVVLCDISQEMLIQAQAHIDASTEPLNIELIHAPIQALSVEQNGVFDLILCHAVVEWLTDAQRTMEGLLTMLKPNGLFSLMFYNKEAMRFHALISGNFDYVAADLKVKKKVRLTPTHPLYIQEVKQWFMDWEMTLISQSGVRVIHDYLKKSQAADFDYQKLLQMELEYSQHEPYISLGRYVHFLGISRGT
MGSDKIHHHHHHVSKLSKTRIILACLLNDSVMTTTTAALTPNPIPDLGTDLTTEPCPLTAAQLDVLNRQIKLWGKELGFAHIGVADVDLSQHEAALQDWLDKGYHGEMGYMANHGMMRARPAELHPGAIRVICARMDYLPPDAGFASNLTDPNLGYISRYAGGRDYHKLIRQRLKKLGDKINQYCQQLDFDATDFRPFVDSAPILERPLADKAGLGWTGKHSLILHPDAGSWFFLGELLINLPLPLDIPIEEGCNTCVACIKSCPTDAIVEPYVVDARRCISYLTIELQGAIPEEFRPLIENRIYGCDDCQLVCPVNAKAPLTKETDFHTRTTLIQPDLLTLFAWSETYFLNQTEGSAIRRIGHKRWLRNIAIALGNAPANPAIIEALEQRKHSEEVDDMVLEHIEWALVQQIQKAPQSALSRKTQRVIRSIQKGLPRDA
